US20250019454A1 (BIOCYTOGEN PHARMACEUTICALS BEIJING, published 2025)
Where a chain is given by its changes, count along the chain named.

T1: human TNFR2 (expressed on cells) (human, UniProt P20333 23-461)
T1 construct: also called hTNFR2; human TNF Receptor 2
T1 sequence: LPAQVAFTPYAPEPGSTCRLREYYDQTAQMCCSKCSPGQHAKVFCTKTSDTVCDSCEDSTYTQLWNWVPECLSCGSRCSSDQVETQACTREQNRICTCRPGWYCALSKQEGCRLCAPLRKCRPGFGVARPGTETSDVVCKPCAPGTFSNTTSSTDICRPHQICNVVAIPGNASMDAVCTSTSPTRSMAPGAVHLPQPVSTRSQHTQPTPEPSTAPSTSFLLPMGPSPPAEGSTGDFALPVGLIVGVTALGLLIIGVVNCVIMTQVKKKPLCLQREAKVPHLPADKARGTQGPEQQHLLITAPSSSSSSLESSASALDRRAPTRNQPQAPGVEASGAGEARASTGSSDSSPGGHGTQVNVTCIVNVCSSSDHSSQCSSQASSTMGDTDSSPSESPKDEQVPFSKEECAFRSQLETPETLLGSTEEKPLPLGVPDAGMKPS

T2: ΔCRD2-TNFR2 protein (with CRD2 deletion), on CHO-S cells (human, UniProt P20333 23-461)
T2 construct: also called CHO-SΔCRD2-TNFR2
T2 sequence: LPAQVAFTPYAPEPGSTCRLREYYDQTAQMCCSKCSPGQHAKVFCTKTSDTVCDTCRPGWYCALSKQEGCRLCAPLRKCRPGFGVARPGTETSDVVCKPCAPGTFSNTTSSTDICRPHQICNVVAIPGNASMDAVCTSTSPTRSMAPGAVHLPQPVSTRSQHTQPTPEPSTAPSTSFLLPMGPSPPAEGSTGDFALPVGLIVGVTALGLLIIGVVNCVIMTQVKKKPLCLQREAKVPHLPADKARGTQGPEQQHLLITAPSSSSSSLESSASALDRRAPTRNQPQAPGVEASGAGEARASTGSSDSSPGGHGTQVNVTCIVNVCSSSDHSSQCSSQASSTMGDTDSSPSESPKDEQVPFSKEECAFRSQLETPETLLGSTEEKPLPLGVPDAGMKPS

T3: ΔCRD4-TNFR2 protein (with CRD4 deletion), on CHO-S cells (human, UniProt P20333 23-461)
T3 construct: also called CHO-SΔCRD4-TNFR2; TNFR2 lacking CRD4
T3 sequence: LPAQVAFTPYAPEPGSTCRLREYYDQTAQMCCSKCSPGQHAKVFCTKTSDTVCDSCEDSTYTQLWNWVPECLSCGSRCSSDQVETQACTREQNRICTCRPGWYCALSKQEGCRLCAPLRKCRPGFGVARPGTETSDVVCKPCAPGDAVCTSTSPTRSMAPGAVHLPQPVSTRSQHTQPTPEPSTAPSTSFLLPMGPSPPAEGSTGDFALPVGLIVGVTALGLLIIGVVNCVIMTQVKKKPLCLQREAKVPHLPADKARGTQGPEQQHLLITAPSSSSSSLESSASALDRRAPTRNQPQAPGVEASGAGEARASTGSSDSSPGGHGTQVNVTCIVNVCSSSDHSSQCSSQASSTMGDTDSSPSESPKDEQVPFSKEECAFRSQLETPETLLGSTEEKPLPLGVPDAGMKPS

T4: His-tagged monkey (Crab-eating monkey) TNFR2 (Sino Biological, Cat #: 90102-C08H) (monkey (Crab-eating monkey), UniProt P20333 27-257 (human entry))
T4 construct: Bought protein; also called fTNFR2-His; not shown: His tag
T4 chain: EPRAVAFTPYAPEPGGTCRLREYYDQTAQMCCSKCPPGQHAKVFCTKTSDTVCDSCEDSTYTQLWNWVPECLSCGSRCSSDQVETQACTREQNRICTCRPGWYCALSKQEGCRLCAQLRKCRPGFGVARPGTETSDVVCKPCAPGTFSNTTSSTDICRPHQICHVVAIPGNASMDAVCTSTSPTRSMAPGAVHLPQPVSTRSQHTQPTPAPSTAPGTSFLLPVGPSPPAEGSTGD

B1: BC-1A8-IgG1 (antibody, V domains shown)
VH: QVQLQQSGPGLVKPSQTLSLTCAISGDSVSSNSAAWNWIRQSPSRGLEWLGRTYYRSKWYNDYALSVKSRITINPETSKNQFSLQLNSVTPEDTAVYYCAREDGVGGTKDYFDYWGQGTLVTVSS
VL: DIQMTQSPSSLSASVGDRVTITCQASQDIDNYLNWYQQKPGKAPKLLIYDVSNLEIGVPSRFSGSGSGTDFTFTISSLQPEDIATYYCQQYDNLPLTFGQGTRLEIK
notes: Fully human VH/VL joined to the human IgG1 subtype, kappa light chain (RenMab mice)
B2: BC-1F4-IgG1 (antibody, V domains shown)
VH: B1 VH with N32D, A34S, A64T, L65V, E76D
VL: B1 VL with D30S, V51A, I56T, S76N, I83F, Y87F, L96I
notes: Human VH/VL joined to the human IgG1 subtype
B3: BC-1C3-IgG1 (antibody, V domains shown)
VH: QVQLVESGGGVVHPGKSLRLSCAASGFTFNIYGMHWVRQAPGKGLEWVALISYDGNDKYFADSVKGRFTISRDNSKNTLYLQMNSLRAEDTAVYYCAKAVDTAVVTFFDYWGQGTLVTVSS
VL: EIVMTQSPVTLSVSPGERATLSCRASQSVSSNLAWYQQKPGQAPRLLIYSASTRATGIPARFSGSGSGTEFTLTISSLQSEDLAVYYCQQYSNWPFTFGPGTKVDIK
notes: as for B2
B4: BC-1F10-IgG1 (antibody, V domains shown)
VH: QVQLQQWGAGLLKPSETLSLICAVYDGSFSGDYWSWIRQPPGKGLEWIGEINHSGSTNYNPSLKSRVTISVDTSKNQFSLKLSSVTAADTAVYYCARGHWNYDYYYGMDVWGQGTTVTVSS
VL: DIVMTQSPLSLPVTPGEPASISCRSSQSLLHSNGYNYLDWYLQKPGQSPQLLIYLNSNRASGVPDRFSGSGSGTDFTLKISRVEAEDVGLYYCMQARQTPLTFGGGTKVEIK
notes: as for B2
B5: BC-1B6-IgG1 (antibody, V domains shown)
VH: QVQLVESGGGVVQPGRSLRLSCAASGFTFSNFGMHWVRQAPGKGLEWVAVIWYEGSDKYYADSVKGRFTISRDNSKNTLYLQMNSLRAEDTAVYYCARDSSWGFLLYGMDVWGQGTTVTVSS
VL: DVVMTQSPLSLPVTLGQPASISCRSSRSLEYSDGNTYLNWFQQRPGQSPRRLIYKVSNRDSGVPDRFSGSGSGTAFTLKISGVEAEDVGVYYCMQGTHWPPTFGGGTKVEIK
notes: as for B2

Experiments:
[1] = target: T1, human TNFR2 (expressed on cells); test: flow cytometry competition, CHO cells with human TNFR2, antibody 0.039 µg/mL, Biotin-hTNFα 0.5 µg/mL
Procedure: (§1) 30 μl of Biotin-hTNFα (Acro Biosystems, Cat #: TNA-H82E1) was added to each well (with a final concentration of 0.5 μg/mL in each well). The cells with Biotin-hTNFα and the antibodies were incubated at 4° C. for 30 minutes.
(§2) The signals for AF647 and PE were determined by flow cytometry (Thermo Attune NX).

[2] = target: T2, ΔCRD2-TNFR2 protein (with CRD2 …); test: FACS on CHO-S cells with ΔCRD2-TNFR2, AF647 anti-human IgG Fc secondary
Description: (§3) TNFR2 has four cysteine rich domains (CRD). In another experiment, FACS was used to detect the binding of anti-hTNFR2 antibodies to TNFR2 proteins with different structural domains. Secondary antibody (Alexa Fluor® 647 AffiniPure F(ab′) 2 Fragment Goat Anti-Human IgG, Fcγ fragment specific, Jackson ImmunoResearch Laboratories, Inc., Cat #: 151524) was used. The fluorescence-labeled secondary antibody can attach to the Fc region of the anti-hTNFR2 antibodies so that the anti-hTNFR2 antibodies that are bound to the ΔCRD cells can be detected by FACS. Specifically, ΔCRD1-TNFR2 protein (with CRD1 deleteion), ΔCRD2-TNFR2 protein (with CRD2 deleteion), ΔCRD3-TNFR2 protein (with CRD3 deleteion) or ΔCRD4-TNFR2 protein (with CRD4 deleteion) were expressed in CHO-S cells respectively, and then the binding between the cells and different anti-hTNFR2 antibodies was detected.

[3] = target: T1, human TNFR2 (expressed on cells); test: flow cytometry competition, CHO cells with human TNFR2, antibody 0.625 µg/mL, Biotin-hTNFα 0.5 µg/mL
Procedure: as §1, §2

[4] = target: T3, ΔCRD4-TNFR2 protein (with CRD4 …); test: FACS on CHO-S cells with ΔCRD4-TNFR2, AF647 anti-human IgG Fc secondary
Description: as §3

[5] = target: T4, His-tagged monkey (Crab-eating monkey) …; test: SPR Biacore 8K, antibody captured on Protein A chip, fTNFR2-His as analyte
Procedure: Purified anti-TNFR2 antibodies were diluted to 1 μg/mL and then injected into the Biacore 8K biosensor at 10 μL/min for about 50 seconds to achieve a desired protein density (e.g., about 50 response units (RU)). […] Dissociation was monitored for 600 seconds. The chip was regenerated after the last injection of each titration with Glycine (pH 2.0, 30 μL/min for 30 seconds).
Similar to the aforementioned binding affinity experiment, the binding affinities of the anti-TNFR2 antibodies BC-1B6-IgG1, BC-1C3-IgG1 and BC-1F4-IgG1 to His-tagged monkey (Crab-eating monkey) TNFR2 (fTNFR2-His, Sino Biological, Cat #: 90102-C08H) were measured.

Binder	percentage of tested cells that had Streptavidin signals [1]	positive rate of binding (% of cells) [2]	percentage of tested cells that had Streptavidin signals [3]	positive rate of binding (% of cells) [4]	Kd [5]	koff [5]	kon [5]
B1	62.8%	71.2%	58.6%	29.4%	–	–	–
B2	84.6%	59.1%	61.9%	21.3%	0.0201 µM	0.0109 s⁻¹	541000 M⁻¹ s⁻¹
B3	77%	80.3%	77.3%	1.85%	0.118 µM	0.0221 s⁻¹	187000 M⁻¹ s⁻¹
B4	59%	65.7%	60.2%	38.3%	–	–	–
B5	78.9%	–	80.4%	–	0.0175 µM	0.00547 s⁻¹	313000 M⁻¹ s⁻¹
